For the assay, the target named is complement C1q (human) (UniProt P02745). Briefly: fluorescence polarisation.
Sequence of UniProt P02745 (P02745 23-245, chain 1 of 3): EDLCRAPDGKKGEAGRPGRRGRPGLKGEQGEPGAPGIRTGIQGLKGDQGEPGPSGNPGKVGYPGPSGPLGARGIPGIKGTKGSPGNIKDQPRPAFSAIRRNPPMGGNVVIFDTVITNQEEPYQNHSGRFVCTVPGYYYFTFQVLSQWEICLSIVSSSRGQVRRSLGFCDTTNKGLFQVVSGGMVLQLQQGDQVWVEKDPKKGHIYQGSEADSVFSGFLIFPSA
Sequence of UniProt P02745 (P02746 28-253, chain 2 of 3, further chain): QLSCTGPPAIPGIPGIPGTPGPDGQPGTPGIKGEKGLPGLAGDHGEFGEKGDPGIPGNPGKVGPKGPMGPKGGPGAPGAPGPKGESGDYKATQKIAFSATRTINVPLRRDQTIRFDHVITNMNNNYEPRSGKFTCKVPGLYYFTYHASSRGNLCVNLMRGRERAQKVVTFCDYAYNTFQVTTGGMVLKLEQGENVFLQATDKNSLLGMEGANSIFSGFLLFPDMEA
Sequence of UniProt P02745 (P02747 29-245, chain 3 of 3, further chain): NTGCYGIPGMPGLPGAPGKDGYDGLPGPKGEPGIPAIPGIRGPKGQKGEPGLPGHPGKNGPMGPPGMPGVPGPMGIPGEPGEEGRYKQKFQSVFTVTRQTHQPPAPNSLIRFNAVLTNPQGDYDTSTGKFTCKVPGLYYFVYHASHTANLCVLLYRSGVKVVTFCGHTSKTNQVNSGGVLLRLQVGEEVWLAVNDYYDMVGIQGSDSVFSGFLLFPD

“modified C-reactive protein (mCRP) (from UniProt P02741 19-224) (natural protein)” showed a change in anisotropy (Δr) of 0.081.

These data come from article PMC3767169.
